Measurements reported in PMC10053435, “Crystal structures of dimeric and heptameric mtHsp60 reveal the mechanism of chaperonin inactivation” (Life Science Alliance, 2023).

B1: naïve Epinephelus coioides mtHsp60 (EcHsp60), with the mitochondrial importing signal (natural protein)
chain: MFRLPTVMKQVRPVCRALAPHLTRAYAKDVKFGADARALMLQGVDLLADAVAVTMGPKGRTVIIEQSWGSPKVTKDGVTVAKSIDLKDKYKNIGAKLVQDVANNTNEEAGDGTTTATVLARAIAKEGFDTISKGANPVEIRRGVMMAVETVIKELKNLSKPVTTPEEIAQVATISANGDVEIGNIISNAMKKVGRKGVITVKDGKTLHDELEIIEGMKFDRGYISPYFINTAKGQKCEFQDAYLLLSEKKISSVQSIVPALEIANQHRKPLVIVAEDVDGEALSTLVLNRLKVGLQVVAVKAPGFGDNRKNQLRDMAVATGGTVFGDEAVGLALEDIQAHDFGKIGEVQITKDDTLLLKGGGSPAEVEKRAAEIVEQLENTTSDYEKEKLNERLAKLSDGVAVLKVGGTSDVEVNEKKDRVTDALNATRAAVEEGIVPGGGCALLRCIPSLDAIQTANADQKIGVEIIRRALRIPAMTIAKNAGVEGSLVVEKILQGSAELGYDAMQGEYVNMVEKGIIDPTKVVRTALLDAAGVASLLSTAEAVVTEIPKEEKEMPGGMGGMGGMGGMGGMGGGMGF
B2: naïve EcHsp60^ΔC (C-terminal GGM repeats truncated, Δ527–552) (domain or fragment)
chain: MFRLPTVMKQVRPVCRALAPHLTRAYAKDVKFGADARALMLQGVDLLADAVAVTMGPKGRTVIIEQSWGSPKVTKDGVTVAKSIDLKDKYKNIGAKLVQDVANNTNEEAGDGTTTATVLARAIAKEGFDTISKGANPVEIRRGVMMAVETVIKELKNLSKPVTTPEEIAQVATISANGDVEIGNIISNAMKKVGRKGVITVKDGKTLHDELEIIEGMKFDRGYISPYFINTAKGQKCEFQDAYLLLSEKKISSVQSIVPALEIANQHRKPLVIVAEDVDGEALSTLVLNRLKVGLQVVAVKAPGFGDNRKNQLRDMAVATGGTVFGDEAVGLALEDIQAHDFGKIGEVQITKDDTLLLKGGGSPAEVEKRAAEIVEQLENTTSDYEKEKLNERLAKLSDGVAVLKVGGTSDVEVNEKKDRVTDALNATRAAVEEGIVPGGGCALLRCIPSLDAIQTANADQKIGVEIIRRALRIPAMTIAKNAGVEGSLVVEKILQGSAELGYDAMQGEYVNMVEKGIIDPTKVVRTALLDAAGVASLLSTAEAVVTEIPKE

Key:
[1] = molecular target: the molecule itself; assay: SEC; protein homogenised and purified at 4°C (LT); Superdex S200pg 16/600, 25 mM Tris-HCl pH 7.6, 150 mM NaCl, 1 ml/min
[2] = molecular target: the molecule itself; assay: SEC; protein homogenised and purified at room temperature (RT, 25°C); Superdex S200pg 16/600, 25 mM Tris-HCl pH 7.6, 150 mM NaCl, 1 ml/min

Protein | stoichiometry N [1] | stoichiometry N [2]
B1 | 2 | 7
B2 | 7 | –
